T1: P-selectin glycoprotein ligand 1 (PSGL-1) with the O-bound glycan structure 6-sulfo N-acetyl lactosamine … (human, UniProt Q14242 42-412)
T1 construct: whole, on cells; also called slan
T1 sequence (looked up): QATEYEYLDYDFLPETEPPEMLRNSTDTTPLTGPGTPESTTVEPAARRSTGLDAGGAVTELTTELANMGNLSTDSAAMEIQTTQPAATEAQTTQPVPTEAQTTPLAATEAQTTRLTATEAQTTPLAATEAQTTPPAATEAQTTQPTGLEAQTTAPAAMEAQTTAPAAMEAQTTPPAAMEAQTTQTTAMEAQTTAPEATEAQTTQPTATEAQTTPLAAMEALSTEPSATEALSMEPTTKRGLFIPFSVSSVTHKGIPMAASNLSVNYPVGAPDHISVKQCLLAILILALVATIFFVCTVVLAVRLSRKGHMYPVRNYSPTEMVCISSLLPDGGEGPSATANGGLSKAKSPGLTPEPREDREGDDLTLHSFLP


Target: T1, P-selectin glycoprotein ligand 1 …
Test: affinity to slan-DCs; method not stated

Binder | Kd [pM] | fold higher affinity than DD2 or M-DC8 [fold]
monoclonal IgM antibody MB4 (antibody, V domains shown, also called anti-slan antibody MB4) VH: EVKLQESGPGLVQPSQSLSITCTVSGFSLTTYGVHWIRQSPGKGLEWLGVIWSGGGTDFNVAFMSRLSINKDNSKSQIFFKMNSLQANDTAIYYCARRTTNDGNYAFAYWGQGTLVTVS VL: DIVMTQSPLSLPVSLGDQASISCRSSQNILHSDGSTYLEWYLQKPGQSPKLLIYKVSNRFSGVPDRFSGSGSGTDFTLKISRVEAEDLGVYYCFQGSHVPWTFGGGTKLEIKR | 0.4 | ~25
monoclonal IgM antibody MB6 (antibody, V domains shown, also called anti-slan antibody MB6) VH: EVKLEQSGPGLVQLSQSLSITCTVSGFSLTTYGVHWIRQSPGKGLEWLGVIWSGGGTDFNVAFISRLSINKDNSKSQVFFKMNSLQANDTAIYYCARRTTNDGNYAFAYWGQGTLVTVS VL: DIVMTQSPLSLPVSLGDQASISCRSSQNILHSDGNTYLEWYLQKPGQSPKLLIYKVSNRFSGVPDRFSGSGSGTDFTLKISRVEAEDLGVYYCFQGSHVPWTFGGGTKLEIKR | 0.4 | ~25

Source: patent US20150299312A1 (TECHNISCHE UNIVERSIT T DRESDEN, published 2015)
